For orientation: stoichiometry N means the number of molecules, sites or subunits per partner or assembly.

Data on three substances can be found in PMC5693944.

Assay in all cases: SEC-MALS
A general note: SEC sorts molecules by how far they enter the pores of the column.

Test [1] addresses Ml1 protein from Mesorhizobium loti (Mesorhizobium loti).
In test [2] the target is Ml2 protein from Mesorhizobium loti (Mesorhizobium loti).
Test [3] has as its target MucR from Brucella abortus (Brucella abortus 2308).

Turning to “Ml1 protein from Mesorhizobium loti (natural protein)”, the stoichiometry N in test [1] is 10.4.

Turning to “Ml2 protein from Mesorhizobium loti (natural protein)”, in test [2], the stoichiometry N came to 9.96.

In test [3], “MucR from Brucella abortus (natural protein)” had a stoichiometry N of 10.4.
